The results in this text go back to paper PMC8496732, “RAB33B recruits the ATG16L1 complex to the phagophore via a noncanonical RAB binding protein” (Autophagy, 2020).

Common to all, as to conditions: both partners purified
Assay [1] addresses T1, RAB33B wild type, 6xHis, labeled with Tide Fluor 3 (human, UniProt Q9H082 1-229, labeled with Tide Fluor 3 (TF3) maleimide).
T1 construct: RAB33B, human; Loaded with GppNHp or GDP by nucleotide exchange; The crystal construct is 30–218; also called WT^GppNHp; WT^GDP
T1 sequence (looked up): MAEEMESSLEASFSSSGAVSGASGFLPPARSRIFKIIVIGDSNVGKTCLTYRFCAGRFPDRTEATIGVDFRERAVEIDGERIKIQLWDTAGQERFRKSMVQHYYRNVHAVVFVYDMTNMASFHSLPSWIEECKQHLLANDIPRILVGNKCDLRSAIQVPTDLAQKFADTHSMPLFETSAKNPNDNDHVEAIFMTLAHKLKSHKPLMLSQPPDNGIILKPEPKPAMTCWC
Briefly: MST; TF3-labeled RAB33B at 10 μM, GDP-bound; unlabeled ATG16L1(141–265) titrated from 400 μM to 12 nM; 20 mM HEPES pH 7.2, 25 mM NaCl, 2 mM DTE, 2 mM MgCl2, 0.05% Tween 20, 10 µM GDP.

Assay [2] deals with T2, RAB33B F95A, 6xHis, labeled with Tide Fluor 3 (human, UniProt Q9H082 1-229, F95A, labeled with Tide Fluor 3 (TF3) maleimide).
T2 construct: RAB33B, human, F95A; also called F95A^GppNHp
T2 sequence (looked up): T1 sequence (looked up) with F95A
In words: MST; TF3-labeled RAB33B at 10 μM, GppNHp-bound; unlabeled ATG16L1(141–265) titrated from 400 μM to 12 nM; 20 mM HEPES pH 7.2, 25 mM NaCl, 2 mM DTE, 2 mM MgCl2, 0.05% Tween 20, 10 µM GppNHp.

Assay [3] concerns the target T3, RAB33B K35A, 6xHis, labeled with Tide Fluor 3 (human, UniProt Q9H082 1-229, K35A, labeled with Tide Fluor 3 (TF3) maleimide).
T3 construct: RAB33B, human, K35A; also called K35A^GppNHp
T3 sequence (looked up): T1 sequence (looked up) with K35A
The description is as above.

Assay [4] deals with T1, RAB33B wild type, 6xHis, labeled with …. Described as above.
For assay [5], the target named is T4, RAB33B I66A, 6xHis, labeled with Tide Fluor 3 (human, UniProt Q9H082 1-229, I66A, labeled with Tide Fluor 3 (TF3) maleimide).
T4 construct: RAB33B, human, I66A; also called I66A^GppNHp
T4 sequence (looked up): T1 sequence (looked up) with I66A
Described as above.

Substitutions are numbered along the chain they refer to. Names and notes keep the numbering of the source.

B1: ATG16L1(141–265) wild type, expressed separately (domain or fragment, UniProt Q8C0J2 141-265, looked up)
chain: LETNCLDLRTKLQDLEVANQTLKDEYDALQITFTALEEKLRKTTEENQELVTRWMAEKAQEANRLNAENEKDSRRRQARLQKELAEAAKEPLPVEQDDDIEVIVDETSDHTEETSPVRAVSRAAT
notes: pOPIN vector with GST tag; also called WT
For orientation: Kd means the equilibrium constant for the complex coming apart. The low end stands for tighter binding, the high end for weaker binding. Turning to B1, the Kd in assay [1] was 0.213 µM; in assay [2], 17.1 µM; in assay [3] it was above 100 µM; in assay [4] it was 0.095 µM; in assay [5] it was 25.9 µM.

B2: ATG16L1(141–265) N206A (domain or fragment, UniProt Q8C0J2 141-265, looked up)
chain: B1 chain with N66A
For the molecule B2, the Kd in assay [4] amounted to 3.38 µM.

B3: ATG16L1(141–265) N209A (domain or fragment, UniProt Q8C0J2 141-265, looked up)
chain: B1 chain with N69A
Molecule B3 returned a Kd in assay [4] of 0.884 µM.

B4: ATG16L1(141–265) N206A,N209A (domain or fragment, UniProt Q8C0J2 141-265, looked up)
chain: B1 chain with N66A, N69A
Turning to B4, the Kd in assay [4] was determined as 24.1 µM.
